Experimental findings from patent publication US20040161776A1 are described below.

Where “and” joins values, the source holds several entries; their conditions need not be identical. Equal values may be shown once.

The target in experiment [1] is prostate specific membrane antigen (PSMA), full-length human (human) (UniProt Q04609). Briefly: radiolabeled mAb bound to PSMA-3T3 cell pellets.
Experiment [2] shares this target. Briefly: average, PSMA-3T3 cells.
For experiment [3] the target is unchanged. Briefly: fraction of 177Lu labeled control antibody bound to cells, column PSMA; column 3T3 (no PSMA): 0.7.
Experiment [4] shares this target.
Experiment [5] shares this target. The experiment in a line: competition on PSMA-3T3 cells; unmodified mJ591 varied, competitor 111In radiolabeled 4.40.
The target is the same in experiment [6]. The experiment in a line: fraction of 177Lu labeled antibody bound to cells, column PSMA; column 3T3 (no PSMA): 1.7.

Sequence of prostate specific membrane antigen (PSMA), full-length human (human) (Q04609 whole entry): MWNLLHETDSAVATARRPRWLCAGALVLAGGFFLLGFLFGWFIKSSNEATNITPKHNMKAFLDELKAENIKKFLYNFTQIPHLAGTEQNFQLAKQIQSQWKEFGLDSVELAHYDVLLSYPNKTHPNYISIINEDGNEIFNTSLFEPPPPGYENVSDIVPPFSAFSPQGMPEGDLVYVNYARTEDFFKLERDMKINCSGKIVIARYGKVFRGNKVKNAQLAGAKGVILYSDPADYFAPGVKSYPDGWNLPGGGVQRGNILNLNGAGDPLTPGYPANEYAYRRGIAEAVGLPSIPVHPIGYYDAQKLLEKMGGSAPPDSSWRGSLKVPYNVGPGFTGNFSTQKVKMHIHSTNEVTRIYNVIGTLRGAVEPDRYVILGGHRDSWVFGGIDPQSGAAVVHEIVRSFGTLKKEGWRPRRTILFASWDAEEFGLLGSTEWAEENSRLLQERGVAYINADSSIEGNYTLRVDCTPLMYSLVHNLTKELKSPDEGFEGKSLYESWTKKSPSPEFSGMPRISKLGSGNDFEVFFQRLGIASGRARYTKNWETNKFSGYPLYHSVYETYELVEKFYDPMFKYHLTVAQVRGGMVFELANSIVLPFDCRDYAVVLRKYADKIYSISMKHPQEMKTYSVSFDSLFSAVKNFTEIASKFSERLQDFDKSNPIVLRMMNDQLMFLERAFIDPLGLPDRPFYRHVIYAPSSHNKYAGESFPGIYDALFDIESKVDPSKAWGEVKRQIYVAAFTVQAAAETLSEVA
Sequence of mJ591 (antibody) (VH): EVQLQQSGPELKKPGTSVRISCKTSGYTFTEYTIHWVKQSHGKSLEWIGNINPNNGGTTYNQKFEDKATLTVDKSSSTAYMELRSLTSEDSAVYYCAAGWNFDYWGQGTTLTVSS
Sequence of mJ591 (antibody) (VL): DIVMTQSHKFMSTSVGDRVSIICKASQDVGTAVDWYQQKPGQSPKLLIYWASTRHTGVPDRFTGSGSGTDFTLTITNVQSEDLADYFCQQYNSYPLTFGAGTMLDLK

With “111In radiolabeled CHX-A''-DTPA antibody mJ591”, the Immunoreactivity (%) in experiment [1] was 58.5% and 54.9%; in experiment [2], 56.7%.

Consider IgG (antibody), for which the Cell Based Immunoreactivity (%) in experiment [3] is 5.9%. In addition, the PSMA+/PSMA- Ratio of tumor uptake, Mean in experiment [4] was determined as 1.16.

Substance mAb J591 (murine) (antibody) yielded an IC50 (read off the curve) in experiment [5] of 3 nM.

For mJ591 (antibody), the Cell Based Immunoreactivity (%) in experiment [6] was determined as 46.2%. Further, the PSMA+/PSMA- Ratio of tumor uptake, Mean in experiment [4] was determined as 2.5.
